Test results: publication PMC9942873 (Immunity, 2023)

Experiments:
Test in all cases: ELISA
Details in all cases: both partners purified
[1] = target: T1, recombinant full-length Pfs48/45 (Plasmodium falciparum 3D7, UniProt Q8I6T1)
[2] = target: T2, Pfs48/45 D2-3 (Plasmodium falciparum 3D7, UniProt Q8I6T1)
[3] = target: Pfs48/45 D3 (Plasmodium falciparum 3D7, UniProt Q8I6T1)
[4] = target: T3, Pfs48/45 D1-2 (Plasmodium falciparum 3D7, UniProt Q8I6T1)
[5] = target: T1, recombinant full-length Pfs48/45; remark: listed apart in the source
[6] = target: T3, Pfs48/45 D1-2; remark: listed apart in the source
[7] = target: T2, Pfs48/45 D2-3; remark: listed apart in the source

Measured: binding result

T1 sequence (Q8I6T1 28-428): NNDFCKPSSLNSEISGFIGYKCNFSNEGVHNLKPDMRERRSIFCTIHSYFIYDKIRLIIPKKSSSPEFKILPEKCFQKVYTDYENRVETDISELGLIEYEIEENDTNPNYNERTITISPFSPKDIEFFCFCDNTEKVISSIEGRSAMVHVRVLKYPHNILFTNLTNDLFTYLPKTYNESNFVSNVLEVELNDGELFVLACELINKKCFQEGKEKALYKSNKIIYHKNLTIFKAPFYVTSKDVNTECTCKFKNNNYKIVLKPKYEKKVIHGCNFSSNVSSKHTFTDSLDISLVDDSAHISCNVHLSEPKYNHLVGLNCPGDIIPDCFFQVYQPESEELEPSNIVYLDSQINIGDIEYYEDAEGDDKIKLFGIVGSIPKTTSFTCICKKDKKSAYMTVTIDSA
T3 sequence (Q8I6T1 28-289): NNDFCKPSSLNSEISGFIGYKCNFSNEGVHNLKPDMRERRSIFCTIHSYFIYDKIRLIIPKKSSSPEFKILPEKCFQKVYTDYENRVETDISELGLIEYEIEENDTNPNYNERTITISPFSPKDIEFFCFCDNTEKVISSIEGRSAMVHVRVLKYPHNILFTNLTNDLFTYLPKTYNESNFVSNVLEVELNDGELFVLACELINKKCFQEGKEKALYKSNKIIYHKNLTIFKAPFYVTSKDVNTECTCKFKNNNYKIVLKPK
Pfs48/45 D3, sequence (Q8I6T1 287-428): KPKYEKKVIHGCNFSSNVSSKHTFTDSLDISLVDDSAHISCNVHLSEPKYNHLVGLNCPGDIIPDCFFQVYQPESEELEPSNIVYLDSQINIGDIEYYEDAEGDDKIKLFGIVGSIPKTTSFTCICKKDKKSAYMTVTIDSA
T2 sequence (Q8I6T1 184-428): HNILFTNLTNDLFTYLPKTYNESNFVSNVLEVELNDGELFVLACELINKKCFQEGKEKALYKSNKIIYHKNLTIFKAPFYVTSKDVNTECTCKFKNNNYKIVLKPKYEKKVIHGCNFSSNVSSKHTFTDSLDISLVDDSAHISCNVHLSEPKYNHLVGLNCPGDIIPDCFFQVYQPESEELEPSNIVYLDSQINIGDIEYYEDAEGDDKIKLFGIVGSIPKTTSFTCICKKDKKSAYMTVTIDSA

B1: RUPA-70 (antibody, V domains shown)
VH: QVQLQESGPGLVKPSQTLSLTCTVSGGSISIGGYYWSWIRQHPGKGLEWIGYIYYSGTTYYNPSLKSRVIISIDTSKNQFSLRLKSVTAADTAVYYCARTGLVAAIRGSRRGQQGDYFDYWGQGTLVPVSS
VL: SYELTQPPSVSVSPGQTASLTCSGDKLGDKYASWYQQKPGQSPVLVIHQDKKRPSGIPERFSGSNSGNTATLTISGTQAMDEADYYCQAWDSNTGVFGGGTKLTVL
notes: human IgG1; source: recombinant human IgG1, 293T (Protein A purified) or GenScript
binds: [1] | [2] | [3]

B2: RUPA-61 (antibody, V domains shown)
VH: QVQLVQSGAEVKKPGASVKVSCKASEDTFSSYYIHWVRQAPGQGLEWMGMMNPSGGGTRYTQKFQGRVTMTSDTSTSTVYMEVISLRSEDTAVYYCARVRKRDAYNNRNWGSVFGGMDVWGQGTTVTVSS
VL: QSALTQPPSASGSPGQSVSISCTGTSSDVGGHDYVSWYQHHPGKAPKLMIYEVSKRPSGVPDRFSGAKSGNTASLTVSGLQAEDEADYYCSSFGGSNNLVFGGGTKVTVV
notes: as for B1
binds: [1] | [2] | [3]

B3: RUPA-54 (antibody, V domains shown)
VH: QVQLVESGGGVVQPGRSLRLSCTASGFTFRSYGIHWVRQAPGKGLQWVAFISYDGRNKYYADSVKGRFTISRDNSKNTLYLQMSGLRADDTAVYYCAKDSDNDCTATSCYTVSWGQGTLVTVSS
VL: SYELTQPPSVSVSPGQTARITCSGDALPKKYAYWYQQKSGQAPVLVIYEDKKRPSGIPERFSGSSSGTMATLTISGAQVEDEADYYCYSTDSRTDHGGIFGGGTKLTVL
notes: as for B1
binds: [1] | [2] | [3]

B4: RUPA-29 (antibody, V domains shown)
VH: QVHLVESGGGVVQPGRSLRLSCAASGFTFRSYGMHWVRLAPGKGLEWVTAIWYDGSKKHFADSVKGRFTISRDNSKNTLYLQMSSLRVEDTAVYYCARDFAHGAFYPVDWGRGTLVTVSS
VL: SYELTQPPSVSVSPGQTARITCSGDALPKKHAYWYQQKSGQAPVLVIYDDSKRPSGIPERFSGSSSGTMATLSISGAQVEDEAAYYCYSSDTSANYWVFGGGTKLTVL
notes: as for B1
binds: [1] | [2] | [3]

B5: RUPA-65 (antibody, V domains shown)
VH: QVQLVQSGAEVKKPGASVKVSCKASGYTFLYHDIIWMRQATGQGPEWMGWINPNTGNTGHAQKFQGRVTLTRNMSSGTAYMELRSLRSEDTAVYYCARGVGTYHGSGGWFDPWGQGTLVTVSS
VL: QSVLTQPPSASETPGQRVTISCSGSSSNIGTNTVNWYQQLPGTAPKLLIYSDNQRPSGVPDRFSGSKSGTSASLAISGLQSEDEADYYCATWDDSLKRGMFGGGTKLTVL
notes: as for B1
binds: [1] | [4] | [2]

B6: RUPA-49 (antibody, V domains shown)
VH: QVQLVQSGAEVKKPGASVKVSCKASGYTFLYHDIIWMRQATGQGPEWMGWINPNTGNTGLAQKFQGRVSLTRNMSSGTAYMELRSLRSEDRAIYFCARGVGTYHGSGGWFDPWGQGTLVAVSS
VL: QSVLTQPPSASETPGQRVTLSCSGSSSNIGSHTVNWYRQLPGTAPKLLIHSDDQRPSGVPDRFSGSKSGTSASLAISGLQSEDEADYYCATWDDSLKRGVFGGGTKLTVL
notes: as for B1
binds: [1] | [4] | [2]

B7: RUPA-161 (antibody, V domains shown)
VH: QVQLVQSGAEVKKPGASVKVSCKASGYTFLYHDIIWMRQATGQGPEWMGWINPNTGNTGLAQKFQGRVSLTRNMSSGTAYMELRSLRSEDRAIYYCARGVGTYHGSGGWFDPWGQGTLVTVSS
VL: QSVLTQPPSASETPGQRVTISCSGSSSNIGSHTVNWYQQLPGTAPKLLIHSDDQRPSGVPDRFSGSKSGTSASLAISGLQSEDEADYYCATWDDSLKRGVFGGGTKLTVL
notes: as for B1
binds: [5] | [6] | [7]

B8: RUPA-68 (antibody, V domains shown)
VH: QVQLVQSGAELKKPGASVKVSCKASGYTFTSHDITWVRQAAGQGLEWMGWMNPNTGDKGYAQKFQGRVTMTRNMSTRTAYMEVNSLTSEDTAVYYCARGVGTYHGAGGWFDPWGQGTLVTVSS
VL: QSVVTQPPSVSETPGQRVTISCSGSSSNIGSNIVSWYQQLPGTAPKLLIYSDNQRPSGVPDRFSASKSGTSASLAISGLQSEDEADYYCATWDDSLKRGVFGGGTKLTVL
notes: as for B1
binds: [1] | [4] | [2]

B9: RUPA-44 (antibody, V domains shown)
VH: QLQLQESGPGLVKPSETLSLTCTVSGGSISRSPYYWGWIRQPPGKGLEWFGSIYNNGSTYYNPPLKSRLTISVDTSKNQFSLKLSSVTAADTAVYYCARHGGSTGMKVVVIAPPDYWGQGTLVTVSS
VL: DIQMTQSPATLSASVGDRVTITCRASQSISSWLAWYQQKPGEAPKLLIYKASSLQSGVPSRFSGSGSGTKFSLTISSLQPDDFATFYCQQYHSYPYTFGQGTKLEIK
notes: as for B1
binds: [1] | [2] | [3]

B10: RUPA-83 (antibody, V domains shown)
VH: QVQLVQSGAEVKKPGASVKVSCKASGYIFTDYGITWVRQAPGQGLEWLGWISGYSYNTNYALKFQGRVTMTTDTSTSVTYMELRNLRSDDTAVYYCARDSRSSQLLQKFDLWGQGTLVTVSS
VL: DIQLTQSPSSLSASVGDRVTITCRASQTTRNFLNWYQQKPGKAPELLIYAASTLQSGVPSRFSGSGSGTDFTLTIKNLQPEDFASYYCQQSFSSPTFGQGTKVEIK
notes: as for B1
binds: [1] | [4] | [2]

B11: RUPA-86 (antibody, V domains shown)
VH: QVQLVQSGAEVKKPGASVKVSCKSSGFRFTGYYIHWVRQAPGQGLEWMGCINPNNGGTNYAQKFQGRVTMTRDTSITTAYMDLSRLKSDDTAVYYCARLVAYDQGLDVWGQGTTVTVSS
VL: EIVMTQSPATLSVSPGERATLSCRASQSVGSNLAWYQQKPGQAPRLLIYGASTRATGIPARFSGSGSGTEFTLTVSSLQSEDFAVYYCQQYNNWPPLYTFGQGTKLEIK
notes: as for B1
binds: [1] | [4] | [2]

B12: RUPA-81 (antibody, V domains shown)
VH: EVQLVATGGGLIQPGGSLRLSCTASGFNVSRMYMSWVRQAPGKGLEWVSVIYSDSSGGSTYYTDSLKGRFIISRDNSQNTLYLQMNSLRVDDTAIYYCARDVRGWGYLDFWGQGTLVTVSS
VL: EIVLTQSPGTLSLSPGERAALSCRASQGVSSSFFAWYQQKPGQAPRLLIYGASSRATGIPDRFSGSGSGTDFTLTISRLEPEDFATYYCQQYGYSPWTFGQGTKVEIK
notes: as for B1
binds: [1] | [4] | [2]

B13: RUPA-72 (antibody, V domains shown)
VH: EVQLVESGGGLVQPGGSLRLSCAASGFTFSYYWMHWVRQAPGKELVWVSRIKSDGSSGTTTDYADSVKGRFTISRDTAKNTLYLQMNSLRAEDTAVYYCARAGCSNGVCPPRYYYHGMDVWGQGTTVTVSS
VL: EIVLTQSPGTLSGSPGERATLSCRASQSIRSNYLAWYQQKPGQAPRLLIYGASSRATDIPARFSGSGSGTDFTLTISRLEPEDFAVYYCQHYGNSRVTFGQGTKVEIK
notes: as for B1
binds: [1] | [2] | [3]

B14: RUPA-57 (antibody, V domains shown)
VH: QVQLVESGGGVVQPGRSLRLSCTASGFSFSDYGMHWVRQAPGKGLEWVAVISYHGRDKSYADSVKGRFTISRDNSKKTLYLQMNSLTAEDTALYYCAKSNDHYDNSGYFVYWGLGTKVTVSS
VL: SYELTQPPSVSVSPGQTATITCSGDALPKKFAFWYQQKSGQAPVLVIYEDTKRPSGIPERFSGSSSGTLATLTISGAQVEDEADYYCYSRDSSNTQRVFGGGTKVTVL
notes: as for B1
binds: [1] | [2] | [3]

B15: RUPA-53 (antibody, V domains shown)
VH: QVLLVQSGAEVKKPGASVKVSCKASGYTFLYHDISWVRQATGQGLEWMGWMNPNTGDTGYAQRFQGRVTMTRDMSISTAYLELGSLSSEDTAVYYCARGVGSYHGSGGWLDPWGQGTLVIVSS
VL: not shown
notes: as for B1
binds: [1] | [4] | [2]

B16: RUPA-74 (antibody, V domains shown)
VH: QVQLVQSGAEVKKPGASVKVSCKASGYNFLYHDINWVRQAPGQGLEWMGWMNPNTGNRGYAQQFQDRVSLTRDMSQGTAYMELRNLRSDDTAVYYCARGVGSLYGSGGWIDPWGQGTLVTVSS
VL: QSVLTQPPSASETPGQRVTISCSGSSSNIGSNTVNWYQQVPGTAPKLLMYNDNHRPSGVSDRFSGSKSGTSASLAISGLQSADEADYYCETWDDSLKRRVFGGGTKLTVL
notes: as for B1
binds: [1] | [4] | [2]

B17: RUPA-63 (antibody, V domains shown)
VH: QVQLVQSGAEVKKTGASVKVSCKASGYTFTSHDIIWVRQAAGQGLEWMGWMNPNTGKKGYAQRFQGRITLTRNMSTGTAYMELGSLRSDDSAIYYCARGVGTYYGSEGWLDPWGQGTLVTVSS
VL: QSVLTQPPSASETPGQRVTISCSGSSSNVGSNTVNWYQQLPGTAPKLLMYNTNQRPSGVPDRFSGSKSGTSASLAISGLRSEDEADYYCAAWDDSLKRGVFGGGTRLTVL
notes: as for B1
binds: [1] | [4] | [2]

B18: RUPA-84 (antibody, V domains shown)
VH: QVQLVQSGAEVKKTGASVKVSCKASGYTFTSHDIIWVRQAAGQGLEWMGWMNPNTGKKGYAQKFQGRVTLTRNMSTGTAYMELNSLRSDDSAVYYCARGVGTYYGSEGWLDPWGQGTLVTVSS
VL: QSVLTQPPSASETPGQRVTISCSGSSSNVGSNSVNWYQQLPGTAPKLLMYNTNQRPSGVPDRFSGSKSGTSASLAISGLRSEDEADYYCATWDDSLKRGVFGGGTKLTVL
notes: as for B1
binds: [1] | [4] | [2]

B19: RUPA-35 (antibody, V domains shown)
VH: QVQLVQSGAEVKKPGASVKVSCKASGYTFTSHDIIWVRQAPGQGLEWMGWMNPNIGDTGYAQKFQGRLSMTRKMSISTAYMELSSLRSEDTAVYYCSRGVGTYHGSGGWFDPWGQGTLVTVSS
VL: QSVLTQPPSASETPGQRVTISCSGSTSNIGSNTVSWYQQYPGTAPKLLMYSDNQRPSGVPDRFSGSKSGTSASLAISGLQSEDEAEYYCATWDDSLKRGVFGGGTKLTVL
notes: as for B1
binds: [1] | [4] | [2]
